Patent publication US20220112291A1 (Pfizer, published 2022)

Assays:
[1] = target: T1, cynomolgus CD1a-β2M recombinant protein (Cyno B2M-CD1a ECD-Avi-His6) (cynomolgus monkey); assay: SPR (Biacore 8K, 37 °C), Ab571 captured by anti-human Fc, cyno CD1a as analyte, 1:1 Langmuir fit
T1 construct: also called cyno CD1a; cynomolgus monkey CD1a
T1 chain: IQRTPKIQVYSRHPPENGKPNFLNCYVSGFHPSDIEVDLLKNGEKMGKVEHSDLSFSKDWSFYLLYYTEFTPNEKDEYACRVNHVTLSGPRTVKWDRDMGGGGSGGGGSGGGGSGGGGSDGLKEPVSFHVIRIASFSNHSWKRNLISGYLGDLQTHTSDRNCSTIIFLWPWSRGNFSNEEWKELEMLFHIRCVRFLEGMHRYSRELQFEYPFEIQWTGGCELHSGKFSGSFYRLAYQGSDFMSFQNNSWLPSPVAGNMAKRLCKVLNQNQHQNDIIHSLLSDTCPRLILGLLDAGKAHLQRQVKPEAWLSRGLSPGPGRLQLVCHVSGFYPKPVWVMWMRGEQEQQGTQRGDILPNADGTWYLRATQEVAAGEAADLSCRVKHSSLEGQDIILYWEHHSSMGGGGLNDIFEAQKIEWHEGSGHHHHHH

[2] = target: T2, human single-chain CD1a-β2M recombinant protein (Human B2M-CD1a ECD-Avi-His6) (human); assay: SPR (Biacore 8K, 37 °C), Ab571 captured by anti-human Fc, human CD1a as analyte, 1:1 Langmuir fit; mean ± SD, n = 6
T2 construct: Biotinylated in the HTRF, phage selection and Gyrolab assays; also called human CD1a; CD1a protein

[3] = target: T1, cynomolgus CD1a-β2M recombinant protein …; assay: SPR (Biacore 8K, 37 °C), Ab571 captured by anti-human Fc, cyno CD1a as analyte, 1:1 Langmuir fit; mean ± SD, n = 6
[4] = target: T2, human single-chain CD1a-β2M recombinant …; assay: SPR (Biacore), IgG; antigen taken as human CD1a
[5] = target: T2, human single-chain CD1a-β2M recombinant …; assay: SPR (Biacore 8K, 37 °C), Ab571 captured by anti-human Fc, human CD1a as analyte, 1:1 Langmuir fit
[6] = target: Human CD1c (recombinant; Human B2M-CD1c ECD-His6) (human); assay: ELISA, plates coated with recombinant CD1c, titrated Ab571
[7] = target: Human CD1d (recombinant; Human B2M-CD1d ECD-His6) (human); assay: ELISA, plates coated with recombinant CD1d, titrated Ab571
[8] = target: T3, human CD1a expressed on cells (human, UniProt P06126 17-327); assay: flow cytometry, AF-647-conjugated Ab571 on primary human monocyte-derived dendritic cells; average
T3 construct: Full-length human CD1a on the cell surface (transfected CHO, C1R, K562 cells, or endogenous on primary dendritic cells); associated β2-microglobulin of the cell not described; also called CHO/human CD1a; C1R-huCD1a

[9] = target: T3, human CD1a expressed on cells; assay: cell-based or functional assay
[10] = target: Human CD1b (recombinant; Human B2M-CD1b ECD-His6) (human); assay: ELISA, plates coated with recombinant CD1b, titrated Ab571
[11] = target: T2, human single-chain CD1a-β2M recombinant …; assay: Surface Plasmon Resonance (summary table; same experiment as Table 7)
[12] = target: T1, cynomolgus CD1a-β2M recombinant protein …; assay: as above
[13] = target: T4, Human C1q (human, UniProt P02745 23-245; P02746 28-253; P02747 29-245); assay: in vitro human C1q binding assay
T4 construct: Source and form of C1q not described; also called Clq

[14] = target: T2, human single-chain CD1a-β2M recombinant …; assay: ELISA, plates coated with recombinant human CD1a, titrated Ab571
[15] = target: T3, human CD1a expressed on cells; assay: cell-based or functional assay; remark: listed apart in the source

T3 sequence (P06126 17-327): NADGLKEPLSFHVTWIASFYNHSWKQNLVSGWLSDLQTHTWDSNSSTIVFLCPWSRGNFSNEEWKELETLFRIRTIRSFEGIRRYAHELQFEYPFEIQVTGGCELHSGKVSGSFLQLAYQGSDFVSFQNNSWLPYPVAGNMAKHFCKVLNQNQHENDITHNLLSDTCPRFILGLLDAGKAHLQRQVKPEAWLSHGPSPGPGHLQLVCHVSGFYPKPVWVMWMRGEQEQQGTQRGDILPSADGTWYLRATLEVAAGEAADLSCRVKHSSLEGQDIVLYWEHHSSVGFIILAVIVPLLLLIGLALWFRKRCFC
Sequence of Human CD1d (recombinant; Human B2M-CD1d ECD-His6) (human) (chain, as listed by the source limits assumed): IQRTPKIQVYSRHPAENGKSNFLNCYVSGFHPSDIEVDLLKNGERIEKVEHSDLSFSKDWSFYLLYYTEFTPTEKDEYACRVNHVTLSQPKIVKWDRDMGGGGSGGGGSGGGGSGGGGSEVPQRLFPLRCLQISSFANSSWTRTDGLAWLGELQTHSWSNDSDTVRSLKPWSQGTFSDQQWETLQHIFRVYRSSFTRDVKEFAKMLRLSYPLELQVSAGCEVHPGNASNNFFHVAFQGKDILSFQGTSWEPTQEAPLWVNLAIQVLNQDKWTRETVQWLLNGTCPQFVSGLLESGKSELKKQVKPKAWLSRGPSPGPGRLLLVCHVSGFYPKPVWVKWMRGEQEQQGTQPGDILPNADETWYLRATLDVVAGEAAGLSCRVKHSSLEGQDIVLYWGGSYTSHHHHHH
Sequence of Human CD1b (recombinant; Human B2M-CD1b ECD-His6) (human) (chain, as listed by the source limits assumed): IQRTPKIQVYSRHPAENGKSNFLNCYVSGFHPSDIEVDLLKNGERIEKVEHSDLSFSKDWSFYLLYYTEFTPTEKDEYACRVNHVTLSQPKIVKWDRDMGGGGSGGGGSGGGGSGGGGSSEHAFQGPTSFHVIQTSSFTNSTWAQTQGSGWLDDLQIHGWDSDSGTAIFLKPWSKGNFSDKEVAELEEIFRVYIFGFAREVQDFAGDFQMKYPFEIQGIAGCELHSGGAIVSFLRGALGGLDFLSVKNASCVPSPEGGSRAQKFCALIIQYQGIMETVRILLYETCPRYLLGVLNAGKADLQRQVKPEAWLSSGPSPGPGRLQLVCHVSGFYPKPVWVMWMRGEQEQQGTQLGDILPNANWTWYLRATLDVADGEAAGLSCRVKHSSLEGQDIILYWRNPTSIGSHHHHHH
T4 sequence (P02745 23-245 limits assumed, chain 1 of 3): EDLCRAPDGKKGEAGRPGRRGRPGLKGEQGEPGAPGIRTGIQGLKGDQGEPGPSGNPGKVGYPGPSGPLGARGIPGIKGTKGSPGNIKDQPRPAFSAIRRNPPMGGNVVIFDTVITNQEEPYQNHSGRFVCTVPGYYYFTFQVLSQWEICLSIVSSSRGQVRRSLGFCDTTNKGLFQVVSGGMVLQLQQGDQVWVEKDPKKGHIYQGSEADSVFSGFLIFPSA
T4 sequence (P02746 28-253 limits assumed, chain 2 of 3): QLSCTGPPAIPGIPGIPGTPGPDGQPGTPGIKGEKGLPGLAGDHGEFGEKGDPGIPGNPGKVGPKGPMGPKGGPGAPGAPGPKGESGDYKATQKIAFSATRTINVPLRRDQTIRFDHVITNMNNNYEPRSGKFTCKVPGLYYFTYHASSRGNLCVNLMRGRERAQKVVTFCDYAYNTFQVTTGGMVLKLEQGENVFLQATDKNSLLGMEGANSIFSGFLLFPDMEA
T4 sequence (P02747 29-245 limits assumed, chain 3 of 3): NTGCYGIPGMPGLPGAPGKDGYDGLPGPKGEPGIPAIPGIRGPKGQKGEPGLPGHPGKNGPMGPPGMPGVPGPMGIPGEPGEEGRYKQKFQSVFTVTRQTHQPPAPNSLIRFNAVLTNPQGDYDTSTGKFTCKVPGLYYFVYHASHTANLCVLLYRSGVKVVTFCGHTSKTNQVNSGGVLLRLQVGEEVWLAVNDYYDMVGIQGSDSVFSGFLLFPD
Sequence of Human CD1c (recombinant; Human B2M-CD1c ECD-His6) (human) (chain, as listed by the source limits assumed): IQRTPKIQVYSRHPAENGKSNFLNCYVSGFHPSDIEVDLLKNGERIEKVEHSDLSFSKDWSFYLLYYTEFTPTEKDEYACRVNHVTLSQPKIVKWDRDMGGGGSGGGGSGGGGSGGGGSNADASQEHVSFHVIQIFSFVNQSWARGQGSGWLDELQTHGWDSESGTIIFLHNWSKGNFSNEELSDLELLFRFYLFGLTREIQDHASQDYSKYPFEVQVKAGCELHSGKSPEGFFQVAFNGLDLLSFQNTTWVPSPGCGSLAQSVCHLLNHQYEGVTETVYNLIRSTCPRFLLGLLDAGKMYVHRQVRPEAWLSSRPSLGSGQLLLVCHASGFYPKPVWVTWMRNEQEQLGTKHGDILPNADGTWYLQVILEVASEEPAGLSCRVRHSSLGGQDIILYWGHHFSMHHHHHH

B1: Ab571 (antibody, human IgG1, kappa)
heavy: EVQLVESGGGLVQPGGSLRLSCAASGFTFTDHYMTWVRQAPGKGLEWVAFIRNKAGGYTTESNPAVKGRFTISRDNAKNSLYLQMNSLRAEDTAVYYCARETTGIPTGWFAYWGQGTLVTVSSASTKGPSVFPLAPSSKSTSGGTAALGCLVKDYFPEPVTVSWNSGALTSGVHTFPAVLQSSGLYSLSSVVTVPSSSLGTQTYICNVNHKPSNTKVDKKVEPKSCDKTHTCPPCPAPEAAGAPSVFLFPPKPKDTLMISRTPEVTCVVVDVSHEDPEVKFNWYVDGVEVHNAKTKPREEQYNSTYRVVSVLTVLHQDWLNGKEYKCKVSNKALPAPIEKTISKAKGQPREPQVYTLPPSREEMTKNQVSLTCLVKGFYPSDIAVEWESNGQPENNYKTTPPVLDSDGSFFLYSKLTVDKSRWQQGNVFSCSVMHEALHNHYTQKSLSLSPGK
light: DIQMTQSPSSLSASVGDRVTITCLASEDIYFDLAWYQQKPGKAPKLLIYGGDRLKEGVPSRFSGSGSGTDYTLTISSLQPEDFATYYCQQSYSYPYTFGQGTKLEIKRTVAAPSVFIFPPSDEQLKSGTASVVCLLNNFYPREAKVQWKVDNALQSGNSQESVTEQDSKDSTYSLSSTLTLSKADYEKHKVYACEVTHQGLSSPVTKSFNRGEC
notes: Lead optimized variant of Ab138; human IgG1 effector null / kappa; HC with or without terminal lysine; Used AF-647- or FITC-conjugated in the dendritic cell flow cytometry assays; also called FITC-Ab571; AF-647-conjugated Ab571
In the case of B1, the koff [1] is reported as 9.8e-05 s⁻¹, the kon [1] is reported as 1.64e+06 M⁻¹ s⁻¹ and the Kd [2] is reported as 0.181 nM. It also gave a Kd [3] of 0.0604 nM, a Kd [4] of 0.17 nM and a koff [5] of 0.000228 s⁻¹. For the same binder, the kon [5] was 1.26e+06 M⁻¹ s⁻¹, the binding result [6] was “no binding” and the binding result [7] was “no binding”. The EC50 [8] was 7.83 nM, the “Human Jurkat T cell Activation: IC50 CD69 Expression” value [9] was 0.894 nM and the “Human Jurkat T cell Activation: IC50 IL-2” value [9] was 0.268 nM. For the same binder, the binding result [10] was “no binding”, the Kd [11] was 0.181 nM and the Kd [12] was 0.06 nM. The binding result [13] was “no binding (tested: Up to 30 µg/mL (C1q))”, the EC50 [14] was 0.00652 nM and the “Inhibition of CD69 expression, IC50” value [15] was 1.11 nM.
